From article doi:10.1101/467423 (bioRxiv, 2018)

Biological target: the molecule itself
Assay: negative-stain electron microscopy

B1: Plasmodium falciparum actin I K270M mutant (natural protein)
chain: not shown
- binding result: binds
